Biological target: T1, GMP-140 (Homo sapiens, UniProt P16109)
T1 sequence (P16109 42-830): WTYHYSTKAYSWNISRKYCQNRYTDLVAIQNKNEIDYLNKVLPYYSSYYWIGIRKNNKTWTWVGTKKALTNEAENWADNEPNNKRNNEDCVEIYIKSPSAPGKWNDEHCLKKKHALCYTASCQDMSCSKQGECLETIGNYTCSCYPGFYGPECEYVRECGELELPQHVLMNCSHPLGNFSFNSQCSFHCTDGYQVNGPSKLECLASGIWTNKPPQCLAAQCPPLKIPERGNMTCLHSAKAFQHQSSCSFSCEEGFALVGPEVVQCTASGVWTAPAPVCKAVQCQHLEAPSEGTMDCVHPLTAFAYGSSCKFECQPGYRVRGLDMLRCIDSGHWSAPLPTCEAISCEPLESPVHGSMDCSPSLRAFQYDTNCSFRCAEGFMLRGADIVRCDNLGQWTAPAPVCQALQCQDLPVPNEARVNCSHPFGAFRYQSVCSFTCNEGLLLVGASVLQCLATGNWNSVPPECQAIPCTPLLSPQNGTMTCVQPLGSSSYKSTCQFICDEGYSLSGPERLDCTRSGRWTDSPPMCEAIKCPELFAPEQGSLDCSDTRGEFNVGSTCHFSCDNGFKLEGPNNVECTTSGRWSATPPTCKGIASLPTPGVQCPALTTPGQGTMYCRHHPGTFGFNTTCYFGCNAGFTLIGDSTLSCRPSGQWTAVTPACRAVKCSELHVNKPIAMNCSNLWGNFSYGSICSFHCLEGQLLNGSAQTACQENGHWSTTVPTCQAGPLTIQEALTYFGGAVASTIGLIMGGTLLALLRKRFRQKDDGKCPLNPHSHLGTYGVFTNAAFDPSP
Assay: Binding of stimulated platelets to neutrophils in the presence of Ca2+
Type: cell-based
Design: GMP-140 also mediates adhesion of neutrophils to stimulated platelets; endogenous in cells; host or cells: stimulated platelets

binding of platelets to neutrophils: inhibited
B1: GMP-140: granule membrane protein 140, isolated from human platelet lysates by immunoaffinity and ion-exchange chromatography (protein, UniProt P16109 42-830, looked up)
P-selectin: T1 sequence (P16109 42-830)

From patent US5198424A, “Functionally active selectin-derived peptides” (Board of Regents of the University of Oklahoma, priority 1992, dated 1993)
